According to the supplement of paper PMC7877785:
± gives the uncertainty stated by the source.

Experiment: self-splicing fitness, log relative to wild type (ln ratio); higher = more splicing; Tetrahymena group I intron in knt gene, E. coli kanamycin selection, DiMSum; sequences stand for … in CUCUCU…GGAGGGAAAAGUUAUCAGGCAUGCACCUGGUAGCUAGUCUUUAAACCAAUAGAUUGCAUCGGUUUAAAAGGCAAGACCGUCAAAUUGCGGGAAAGGGGUCAACAGCCGUUCAGUACCAAGUCUCAGGGGAAACUUUGAGAUGGCCUUGCAAAGGGUAUGGUAAUAAGCUGACGGACAUGGUCCUAACCACGCAGCCAAGUCCUAAGUCAACAGAUCUUCUGUUGAUAUGGAUGCAGUUCACAGACUAAAUGUCGGUCGGGGAAGAUGUAUUCUUCUCAUAAGAUAUAGUCGGACCUCUCCUUAAUGGGAGCUAGCGGAUGAAGUGAUGCAACACUGGAGCCGCUGGGAACUAAUUUGUAUGCGAAAGUAUAUUGAUUAGUUUUGGAGUACUCGUGGUCG
Method in brief: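 The eight P1ex-region nucleotides of an intron in the knt kanamycin-resistance gene on pET-22b(+) were all randomised and the library put into E. coli BL21(DE3). Six replicate transformations were grown overnight at 37°C or 30°C on LB agar with or without 25 μg/mL kanamycin, together with 100 μg/mL carbenicillin, 50 μM IPTG and 0.2% rhamnose. Colonies were pooled and amplicon-sequenced on an Illumina HiSeq 2500. Fitness from DiMSum is the error-weighted combination of wild-type-normalised replicate fold changes, kanamycin over none.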

Row | Sequence | self-splicing fitness (ln) (30 °C) | self-splicing fitness (ln) (37 °C)
1 | GAUAAGCAAUAUUACGUGCG | -0.71 ± 0.083 | -0.166 ± 0.13
2 | CUUCAGCAAUAUUACGAUCU | -2.86 ± 0.39 | -2.88 ± 0.35
3 | CCGAAGCAAUAUUACGCCCG | -0.442 ± 0.13 | 0.42 ± 0.26
4 | CAUGAGCAAUAUUACGCUGU | -3.14 ± 0.23 | -1.14 ± 0.23
5 | AUAUAGCAAUAUUACGCCGC | -2.58 ± 0.49 | 
6 | GUUCAGCAAUAUUACGUCAG | -3.88 ± 0.23 | -3.07 ± 0.24
7 | ACAGAGCAAUAUUACGGAAC |  | -1.97 ± 0.36
8 | AUCAAGCAAUAUUACGUAGC | -4.82 ± 0.45 | -2.1 ± 0.31
9 | UCCGAGCAAUAUUACGAGGC | -3.1 ± 0.36 | -1.7 ± 0.39
10 | GCUGAGCAAUAUUACGGCCA | -2.02 ± 0.28 | -1.9 ± 0.38
11 | AUCCAGCAAUAUUACGCGGC | -2.86 ± 0.18 | -4.06 ± 0.24
12 | UGACAGCAAUAUUACGUCGG | -1.72 ± 0.094 | -0.734 ± 0.11
13 | AUCCAGCAAUAUUACGACUU | 0.167 ± 0.074 | 0.32 ± 0.086
14 | CACCAGCAAUAUUACGGGUA | -0.28 ± 0.045 | -0.404 ± 0.055
15 | AACGAGCAAUAUUACGGCCA | -3.21 ± 0.18 | -1.37 ± 0.13
16 | UACCAGCAAUAUUACGGUGA | -0.536 ± 0.057 | 0.0523 ± 0.075
17 | AAGGAGCAAUAUUACGAGUU | -3.53 ± 0.17 | -1.65 ± 0.12
18 | CGUCAGCAAUAUUACGACGC |  | -3.2 ± 0.32
19 | AUAUAGCAAUAUUACGCAGG | -3.74 ± 0.31 | -1.69 ± 0.23
20 | AGAUAGCAAUAUUACGAGUA | -1.76 ± 0.3 | -1.33 ± 0.2
21 | GUAGAGCAAUAUUACGGCGG | -1.86 ± 0.12 | -1.99 ± 0.18
22 | AAAUAGCAAUAUUACGAGUC | -3.89 ± 0.33 | -2.2 ± 0.36
23 | CGAUAGCAAUAUUACGGGCG | -1.67 ± 0.12 | -0.602 ± 0.11
24 | UUGGAGCAAUAUUACGAGAC |  | -2.25 ± 0.5
25 | CUUAAGCAAUAUUACGAACG | -0.163 ± 0.11 | 0.187 ± 0.14
26 | AGACAGCAAUAUUACGCGAC | -3.41 ± 0.44 | -1.99 ± 0.21
27 | UCGGAGCAAUAUUACGUAUU | -4.15 ± 0.18 | -2.34 ± 0.15

Row | Sequence | self-splicing fitness (ln) (30 °C) | self-splicing fitness (ln) (37 °C)
28 | GGACAGCAAUAUUACGGCAU | -0.228 ± 0.053 | 0.0818 ± 0.068
29 | AGGUAGCAAUAUUACGAUCG | -0.106 ± 0.015 | 0.121 ± 0.035
30 | GGGCAGCAAUAUUACGGGUG | -3.07 ± 0.14 | -1.71 ± 0.19
31 | UAGUAGCAAUAUUACGUUGC |  | -1.53 ± 0.44
32 | UUUUAGCAAUAUUACGCGCC | -1.71 ± 0.29 | -0.726 ± 0.28
33 | CGCGAGCAAUAUUACGCAUU | -2.71 ± 0.18 | -3.29 ± 0.35
34 | GGGCAGCAAUAUUACGCAAG | -1.37 ± 0.24 | -0.431 ± 0.23
35 | UUCGAGCAAUAUUACGCUAC |  | -0.0805 ± 0.34
36 | GUGUAGCAAUAUUACGCCAA |  | -1.85 ± 0.34
37 | UCAUAGCAAUAUUACGAAGG | -2.69 ± 0.14 | -1.31 ± 0.11
38 | CGGAAGCAAUAUUACGUUCU | -1.91 ± 0.14 | -0.77 ± 0.14
39 | UAUGAGCAAUAUUACGCUUA | -3.19 ± 0.41 | -1.47 ± 0.26
40 | UCGGAGCAAUAUUACGUAAC | -3.51 ± 0.48 | 
41 | AUAAAGCAAUAUUACGAUCA | 0.0672 ± 0.054 | 0.203 ± 0.077
42 | GAGUAGCAAUAUUACGUUCU | -2.18 ± 0.18 | -2.56 ± 0.21
43 | CCUUAGCAAUAUUACGUCCG | -1.73 ± 0.11 | -0.989 ± 0.17
44 | GGACAGCAAUAUUACGAAUC | -0.0402 ± 0.12 | 0.32 ± 0.17
45 | UGCAAGCAAUAUUACGCCCU | -0.189 ± 0.15 | 0.448 ± 0.14
46 | CUGCAGCAAUAUUACGCUGG | -3.66 ± 0.23 | -2.64 ± 0.25
47 | UCCGAGCAAUAUUACGUUUA | -2.86 ± 0.48 | -1.71 ± 0.23
48 | AAUAAGCAAUAUUACGUGGU | -3.77 ± 0.17 | -2.63 ± 0.14
49 | GGAAAGCAAUAUUACGUCUC | -3.22 ± 0.41 | 
50 | ACCGAGCAAUAUUACGCGCC | -3.19 ± 0.25 | -3.32 ± 0.43
51 | UUCUAGCAAUAUUACGAGGG |  | -1.5 ± 0.17
52 | CCGCAGCAAUAUUACGUAAC | -3.86 ± 0.3 | -2.7 ± 0.29
53 | UCAUAGCAAUAUUACGGUCC | -3.53 ± 0.37 | -1.81 ± 0.35
54 | AACUAGCAAUAUUACGCACU | -0.218 ± 0.084 | -0.0139 ± 0.11

Row | Sequence | self-splicing fitness (ln) (30 °C) | self-splicing fitness (ln) (37 °C)
55 | GACAAGCAAUAUUACGUAUU | -2.83 ± 0.1 | -1.66 ± 0.11
56 | UGACAGCAAUAUUACGGCGG | -0.935 ± 0.053 | 0.0557 ± 0.072
57 | CUGGAGCAAUAUUACGGGUU | -2.29 ± 0.18 | -2.91 ± 0.28
58 | UGGAAGCAAUAUUACGUGAA | -1.33 ± 0.096 | -1.65 ± 0.12
59 | GUCGAGCAAUAUUACGGGUC | -2.68 ± 0.39 | 
60 | ACAAAGCAAUAUUACGGUGC | -2.89 ± 0.12 | -2.32 ± 0.12
61 | AGUAAGCAAUAUUACGACGU | -0.0587 ± 0.09 | -0.132 ± 0.087
62 | CCGAAGCAAUAUUACGUUAG | -1.97 ± 0.093 | -0.908 ± 0.082
63 | CUAUAGCAAUAUUACGACGG | 0.143 ± 0.13 | 0.155 ± 0.15
64 | GAUCAGCAAUAUUACGCAGG | -3.3 ± 0.29 | -1.09 ± 0.12
65 | AGGUAGCAAUAUUACGGUUA | -0.977 ± 0.016 | -0.509 ± 0.033
66 | GGCUAGCAAUAUUACGGGCU |  | -3.05 ± 0.3
67 | GUAUAGCAAUAUUACGCAGU |  | -2.33 ± 0.37
68 | UCCAAGCAAUAUUACGUCCG | -2.76 ± 0.21 | -1.81 ± 0.19
69 | GAUAAGCAAUAUUACGUAUU | -4.03 ± 0.37 | -1.78 ± 0.21
70 | GCUAAGCAAUAUUACGGACG | -0.941 ± 0.058 | -0.51 ± 0.074
71 | UGUGAGCAAUAUUACGAGAG | -3.57 ± 0.23 | -2.44 ± 0.22
72 | UUCGAGCAAUAUUACGCGCA | -0.15 ± 0.13 | -0.296 ± 0.17
73 | CAUGAGCAAUAUUACGCAAG | -3.15 ± 0.13 | -1.69 ± 0.12
74 | AACUAGCAAUAUUACGAACC | -0.5 ± 0.2 | -0.373 ± 0.21
75 | GCACAGCAAUAUUACGAUGG | -0.945 ± 0.072 | -1.06 ± 0.081
76 | GAGCAGCAAUAUUACGUCUA | 0.0729 ± 0.12 | 0.0653 ± 0.13
77 | GUUUAGCAAUAUUACGCGGU | -2.3 ± 0.45 | -1.95 ± 0.36
78 | AUUGAGCAAUAUUACGUUCU | -2.53 ± 0.14 | -1.22 ± 0.15
79 | GUUUAGCAAUAUUACGUUGU | -4.02 ± 0.21 | -2.17 ± 0.16
80 | AUGAAGCAAUAUUACGUUGA | -2.39 ± 0.1 | -0.85 ± 0.12
